This is an account of results in US20220242906A1.

This test concerns the target elongation initiation factor 4E (eIF4E), P06730. The test is described as follows: SPR (Biacore T100), eIF4E immobilised on CM5 chip, peptide as analyte. The settings on record: remark: other sources report otherwise. On the technique in general: In SPR one partner is held on a chip, and binding of the other changes the refractive index at the surface.

Sequence of elongation initiation factor 4E (eIF4E), P06730 (P06730 2-217 limits assumed): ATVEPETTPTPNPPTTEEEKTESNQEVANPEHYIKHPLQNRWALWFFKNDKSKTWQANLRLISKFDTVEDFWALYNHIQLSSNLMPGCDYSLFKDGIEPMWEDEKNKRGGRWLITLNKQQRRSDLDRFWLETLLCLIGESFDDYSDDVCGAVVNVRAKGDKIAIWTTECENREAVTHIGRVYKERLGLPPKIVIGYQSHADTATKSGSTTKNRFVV

B1: EE-2C (peptide)
peptide: ACEMAFFQDCG
HELM: PEPTIDE1{A.C.E.M.A.F.F.Q.D.C.G.[am]}$PEPTIDE1,PEPTIDE1,2:R3-10:R3$$$V2.0
SMILES: CSCC[C@@H]1NC(=O)[C@H](CCC(=O)O)NC(=O)[C@@H](NC(=O)[C@H](C)N)CSSC[C@@H](C(=O)NCC(N)=O)NC(=O)[C@H](CC(=O)O)NC(=O)[C@H](CCC(N)=O)NC(=O)[C@H](Cc2ccccc2)NC(=O)[C@H](Cc2ccccc2)NC(=O)[C@H](C)NC1=O
Regarding B1, the Kd (commonly a measure of binding affinity in units of concentration) came to 32 µM. That is a double-digit micromolar value.

B2: EE-2A (peptide)
peptide: ACAMGFFQDCG
HELM: PEPTIDE1{A.C.A.M.G.F.F.Q.D.C.G.[am]}$PEPTIDE1,PEPTIDE1,2:R3-10:R3$$$V2.0
SMILES: CSCC[C@@H]1NC(=O)[C@H](C)NC(=O)[C@@H](NC(=O)[C@H](C)N)CSSC[C@@H](C(=O)NCC(N)=O)NC(=O)[C@H](CC(=O)O)NC(=O)[C@H](CCC(N)=O)NC(=O)[C@H](Cc2ccccc2)NC(=O)[C@H](Cc2ccccc2)NC(=O)CNC1=O
B2: the Kd worked out at 11 µM.
